Assay results from PMC11948038, “Evolutionary Pro‐To‐Thr Mutation in the Intrinsically Disordered Domain of ANP32 Family Members Modulates Their Target Binding Modes” (Advanced Science, 2025).

Key:
[1] = tested on: 15N-labeled Cc; assay: NMR titration (1H-15N HSQC) of 15N Cc with ANP32A or ANP32A1-167; type: binding; conditions: low ionic strength; 25 °C
Description: NMR titrations of 30 µM ^15N reduced Cc with ^14N ANP32A constructs were followed by 1D ^1H and 2D ^1H-^15N heteronuclear single quantum correlation (HSQC) spectra on a Bruker Avance-III 600 MHz equipped with a cryoprobe at 25 °C. ^15N-labelled reduced Cc (in 10 mM sodium phosphate buffer, pH 7.4) was titrated with increasing amounts of ^14N ANP32A dialyzed against the same buffer. Reduced ^15N Cc and ^14N ANP32A1-167 construct were titrated in 5 mM sodium phosphate buffer pH 6.4. To maintain the redox state of Cc and to adjust the lock signal on the NMR spectrometer, 0.1 mM of sodium ascorbate and 10% of D2O were added, respectively. Data were acquired and processed using TopSpin NMR 3.5pl7 software (Bruker).
Line broadening and chemical-shift perturbation analysis were performed using the Sparky 3 NMR assignment tool (T.D. Goddard and D.G. Kneller, University of California San Francisco, USA). Assignment of ANP32A230-249 and ANP32B232-251 peptides was performed using NMRFAM-SPARKY software distribution (National Magnetic Resonance Facility at Madison) and further imported to CCPNMR ^[1], whereby distance restraints were calculated using its built-in module.

[2] = biological target: T1, cytochrome c (Homo sapiens, UniProt P99999); assay: ITC titration of full-length ANP32A or ANP32A1-167 with reduced Cc; type: binding; conditions: low ionic strength (25 mM)
T1 construct: obtained by immunizing male rabbits with full-length recombinant Cc; made in house; host or cells: E. coli BL21 (DE3)
Description: Isothermal titration calorimetry (ITC) experiments were performed using a Nano ITC Low Volume instrument (TA Instruments, USA). The reference cell was filled with distilled water. Titration experiments between reduced Cc and ANP32A or ANP32A1‐167 consisted of 17 injections of 2.91 µL of a 400 µM reduced Cc solution into the sample cell containing 50 µM ANP32A construct. Both Cc and ANP32A proteins were dialyzed against 10 mM sodium phosphate buffer pH 7.4. Assays performed at moderate ionic strength used the same experimental setup, but proteins were dialyzed against 20 mM sodium phosphate pH 7.4 with 50 mM NaCl. […] ANP32A, ANP32A230‐249 and ANP32B232‐251 titration data were analyzed using Origin 7.0 (OriginLab), employing a single‐ligand binding site model or a two‐ligand binding sites model. […] ANP32A1‐167 titration data was processed and analyzed using NanoAnalyze software (TA instruments).
ITC experiments were performed using a Nano ITC Low Volume instrument (TA Instruments, USA). […] ANP32A, ANP32A230-249 and ANP32B232-251 titration data was analyzed using Origin 7.0 (OriginLab), employing a single ligand binding site model or a two ligand binding sites model. […] ANP32A1-167 titration data were processed and analyzed using NanoAnalyze software (TA instruments).

[3] = tested on: histone H3; assay: Coimmunoprecipitation of c-myc-ANP32A/B with histone H3; type: binding; conditions: anti-c-myc, Western blot; representative of three experiments
Description: HEK293T cells were transfected with a plasmid encoding ANP32A/b-c-myc. 24 h after transfection, cells were collected for lysates preparation in buffer containing 20 mM Tris-HCl pH 7.5, 100 mM NaCl, 0.5% NP40, 0.1 mM PMSF and cOmplete™. Cells were lysed by sonication and precleared by incubation with sepharose-A beads (GE Healthcare, GE17-5280-01) for 1 h at 4 °C. The lysates were then incubated with anti-c-myc (see Pull-down assays) over night at 4 °C and subsequently with sepharose-A beads (GE Healthcare, GE17-5280-01) for 1 h at room temperature with rotation. Following 6 washes with PBS, the samples were resuspended in SDS loading buffer and analyzed by western blotting.

[4] = biological target: T1, cytochrome c; conditions: Cc-ANP32B, low ionic strength; ref [31]; cited from earlier work
Excerpt: Although both ANP32A and ANP32B interact with Cc via their C‐terminal region, there are remarkable differences in the thermodynamic parameters and binding surfaces between full‐length ANP32A and ANP32B in complex with Cc (Figure 3C,F).^[ [31] ^] […] These di ...

T1 sequence (P99999 whole entry): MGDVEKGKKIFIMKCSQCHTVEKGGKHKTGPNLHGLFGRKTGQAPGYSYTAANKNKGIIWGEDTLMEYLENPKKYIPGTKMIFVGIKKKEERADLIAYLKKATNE

| Molecule | chemical-shift perturbations of Cc amide signals, in words [1] | binding to Cc by ITC, in words [2] | coimmunoprecipitation of histone H3, in words [3] | Kd [4] [µM] | –TΔS [4] [kcal/mol] |
| --- | --- | --- | --- | --- | --- |
| ANP32A1‐167: ANP32A construct lacking its LCAR (protein) MEMGRRIHLELRNRTPSDVKELVLDNSRSNEGKLEGLTDEFEELEFLSTINVGLTSIANLPKLNKLKKLELSDNRVSGGLEVLAEKCPNLTHLNLSGNKIKDLSTIEPLKKLENLKSLDLFNCEVTNLNDYRENVFKLLPQLTYLDGYDRDDKEAPDSDAEGYVEGL | no significant chemical‐shift perturbations | unable to interact with Cc even at low ionic strength |  |  |  |
| ANP32B: acidic leucine‐rich nuclear phosphoprotein 32 B, histone chaperone, paralog of ANP32A (protein, UniProt Q92688 1-251, looked up) Acidic leucine-rich nuclear …: MDMKRRIHLELRNRTPAAVRELVLDNCKSNDGKIEGLTAEFVNLEFLSLINVGLISVSNLPKLPKLKKLELSENRIFGGLDMLAEKLPNLTHLNLSGNKLKDISTLEPLKKLECLKSLDLFNCEVTNLNDYRESVFKLLPQLTYLDGYDREDQEAPDSDAEVDGVDEEEEDEEGEDEEDEDDEDGEEEEFDEEDDEDEDVEGDEDDDEVSEEEEEFGLDEEDEDEDEDEEEEEGGKGEKRKRETDDEGEDD |  |  | H3 binds both ANP32 proteins in a similar manner | ~9.5 | 3.9 |
